Source: US10538802B2, “Polypeptide substrate for the detection of von Williebrand factor cleaving protease ADAMTS13” (IMMUCOR GTI DIAGNOSTICS, INC., priority 2011, dated 2020)

Biological target: T1, ADAMTS13 (Homo sapiens, UniProt Q76LX8)
T1 construct: tissue Gen-Probe GTI Diagnostics (ATS-13 kit calibrators, controls and proficiency samples); George King Biomedical Inc. (FACT, A-FACT, B-FACT plasmas) ATS-13; host or cells: plasma
T1 sequence (Q76LX8 75-1427): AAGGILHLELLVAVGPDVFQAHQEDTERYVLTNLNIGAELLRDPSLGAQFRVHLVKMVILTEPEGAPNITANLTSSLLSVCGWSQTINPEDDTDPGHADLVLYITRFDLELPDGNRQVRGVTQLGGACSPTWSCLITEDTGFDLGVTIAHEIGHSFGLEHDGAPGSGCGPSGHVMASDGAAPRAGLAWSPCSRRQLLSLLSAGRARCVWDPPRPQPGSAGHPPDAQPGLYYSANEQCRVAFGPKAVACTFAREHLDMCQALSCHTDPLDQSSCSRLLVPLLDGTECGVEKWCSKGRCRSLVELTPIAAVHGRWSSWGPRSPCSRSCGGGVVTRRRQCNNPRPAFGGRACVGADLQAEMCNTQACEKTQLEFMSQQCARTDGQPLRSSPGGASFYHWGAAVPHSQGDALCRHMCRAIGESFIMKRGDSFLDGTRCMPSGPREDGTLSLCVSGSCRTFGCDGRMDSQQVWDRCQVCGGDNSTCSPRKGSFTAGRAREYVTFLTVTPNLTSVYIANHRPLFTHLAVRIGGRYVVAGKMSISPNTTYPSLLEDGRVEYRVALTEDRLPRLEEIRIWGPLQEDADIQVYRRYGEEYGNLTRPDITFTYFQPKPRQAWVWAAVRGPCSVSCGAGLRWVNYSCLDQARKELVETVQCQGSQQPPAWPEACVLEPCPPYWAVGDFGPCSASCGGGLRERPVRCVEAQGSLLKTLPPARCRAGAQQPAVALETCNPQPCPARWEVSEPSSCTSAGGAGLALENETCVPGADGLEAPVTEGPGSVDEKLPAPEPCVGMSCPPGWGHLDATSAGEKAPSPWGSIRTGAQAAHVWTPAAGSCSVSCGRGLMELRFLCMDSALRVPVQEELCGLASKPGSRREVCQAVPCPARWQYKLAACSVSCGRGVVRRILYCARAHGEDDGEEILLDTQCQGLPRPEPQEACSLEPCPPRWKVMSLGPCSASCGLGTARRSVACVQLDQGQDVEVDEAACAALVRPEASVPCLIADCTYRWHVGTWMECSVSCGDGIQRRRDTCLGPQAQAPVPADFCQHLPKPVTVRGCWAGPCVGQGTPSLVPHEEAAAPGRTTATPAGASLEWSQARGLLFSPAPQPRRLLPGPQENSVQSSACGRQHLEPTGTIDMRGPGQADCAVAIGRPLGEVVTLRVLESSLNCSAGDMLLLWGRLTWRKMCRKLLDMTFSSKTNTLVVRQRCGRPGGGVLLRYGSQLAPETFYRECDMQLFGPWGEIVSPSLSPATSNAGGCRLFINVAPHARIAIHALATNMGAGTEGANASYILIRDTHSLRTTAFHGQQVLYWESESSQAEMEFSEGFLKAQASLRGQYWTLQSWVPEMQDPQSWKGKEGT
Assay: ADAMTS13 activity assay with fluorogenic (FRET) polypeptide substrate and diluted plasma samples
Type: biochemical
Experimental: The procedure in this example was performed substantially as described in Kokame, K., Y. Nobe, Y. Kokubo, A. Okayama, and T. Miyata. 2005. FRETS-VWF73, a first fluorogenic substrate for ADAMTS13 assay. Br. J. Haematol. 129:93-100, but using SEQ ID NO: 1 in place of the 73 amino acid substrate described therein. The FRETS-VWF73 substrate solution was dissolved in 25% dimethyl sulphoxide/water to prepare the 100 microM stock solution. The GTI FRET4 SEQ ID NO: 1 was dissolved in 100% DMSO. Both substrates were diluted to equal concentrations using ATS-13 substrate buffer (Gen-Probe GT1 Diagnostics, Inc., U.S.A., Cat#ATS-13).
Plasma samples were diluted according to the ATS-13 Direction Insert using ATS-13 specimen diluent (Gen-Probe GTI Diagnostics, Inc., U.S.A., Cat# ATS-13). The diluted plasma samples were mixed with the diluted substrate and the fluorescence was read at 0, 5, 10, 15, 20, 30, 45 minutes using a Biotek FLX800 at the appropriate excitation and emission wavelengths for each substrate.
The fluorophore-quencher pair in the SEQ ID NO: 1 polypeptide substrate is FAM-5/TQ 2^Tm (Ex 485±20; Em 528±20; AAT Bioquest, Inc. Sunnyvale, Calif. U.S.A.). The fluorophore and quencher pair of FRETS-VWF73 (Nma/Dnp) described in Kokame has been substituted with FAM-5 and TQ_2 respectively in GTI_FRET4 SEQ ID NO: 1. Furthermore, in the SEQ ID NO: 1 polypeptide the position of the fluorophore (FAM-5) and quencher (TQ_2) has been swapped relative to the position of the fluorophore and quencher of the FRETS-VWF73 construct. Therefore, for GTI_FRET4 SEQ ID NO: 1, attachment of the fluorophore (FAM-5) occurs by substituting asparagine with cystine at position 15. The quencher (TQ_2) was attached by substituting glutamine with lysine at position 4 (FIG. 2 and Table 4).
For this experiment, substrate concentration and fluorescence reader settings determined on the previous experiment are used. The specimens tested (listed in Table 3), include a panel of proficiency samples prepared for use with ATS-13 (Gen-Probe GTI Diagnostics, Inc., U.S.A., Cat# ATS-13) which included samples with normal or deficient ADAMTS13 activity levels. In addition, six Factor Assay ConTrol plasma were used (2 FACT, 2 A-FACT and 2 B-FACT, from George King Biomedical Inc., Kansas, USA). The assays for the SEQ ID NO: 1 substrate and for the prior art FRETS-VWF73 assay were performed generally as according to the procedure described in Example 1. Substrate is prepared according to the conditions used for initial testing of the substrate, which prepared the molar amount of SEQ ID NO: 1 polypeptide substrate used in the assay to be equivalent to the molar amount of FRETS-VWF73 used in the prior art. The […] assays were read at 0, 5, 10, 15, 20, 30, 45 minutes.
Testing of substrate for cleavability by ADAMTS13 is determined as is generally described in Example 1. […]

% Normal ADAMTS13 Values Calculated Using GTI_FRET4 Substrate (sample Positive Control High, incubation 60 Minutes): 51 % Normal
% Normal ADAMTS13 Values Calculated Using GTI_FRET4 Substrate (sample Positive Control High, incubation 75 Minutes): 54 % Normal
% Normal ADAMTS13 Values Calculated Using GTI_FRET4 Substrate (sample Positive Control High, incubation 90 Minutes): 55 % Normal
Increase in Fluorescence Values (X minute - 0 minute Reading) (sample Positive Control Low, 15 min): 2,182 RFU
Increase in Fluorescence Values (X minute - 0 minute Reading) (sample Positive Control Low, 30 min): 3,902 RFU
Increase in Fluorescence Values (X minute - 0 minute Reading) (sample Positive Control Low, 45 min): 5,511 RFU
Increase in Fluorescence Values (X minute - 0 minute Reading) (sample Positive Control Low, 60 min): 7,169 RFU
Increase in Fluorescence Values (X minute - 0 minute Reading) (sample Positive Control Low, 75 min): 8,789 RFU
Increase in Fluorescence Values (X minute - 0 minute Reading) (sample Positive Control Low, 90 min): 10,370 RFU
% Normal ADAMTS13 Values Calculated Using GTI_FRET4 Substrate (sample Positive Control Low, incubation 15 Minutes): 10 % Normal
% Normal ADAMTS13 Values Calculated Using GTI_FRET4 Substrate (sample Positive Control Low, incubation 30 Minutes): 10 % Normal
% Normal ADAMTS13 Values Calculated Using GTI_FRET4 Substrate (sample Positive Control Low, incubation 45 Minutes): 10 % Normal
% Normal ADAMTS13 Values Calculated Using GTI_FRET4 Substrate (sample Positive Control Low, incubation 60 Minutes): 10 % Normal
% Normal ADAMTS13 Values Calculated Using GTI_FRET4 Substrate (sample Positive Control Low, incubation 75 Minutes): 10 % Normal
% Normal ADAMTS13 Values Calculated Using GTI_FRET4 Substrate (sample Positive Control Low, incubation 90 Minutes): 9 % Normal
Increase in Fluorescence Values (X minute - 0 minute Reading) (sample UAMS041609, 15 min): 3,876 RFU
Increase in Fluorescence Values (X minute - 0 minute Reading) (sample UAMS041609, 30 min): 7,931 RFU
Increase in Fluorescence Values (X minute - 0 minute Reading) (sample UAMS041609, 45 min): 11,692 RFU
Increase in Fluorescence Values (X minute - 0 minute Reading) (sample UAMS041609, 60 min): 15,886 RFU
Increase in Fluorescence Values (X minute - 0 minute Reading) (sample UAMS041609, 75 min): 19,867 RFU
Increase in Fluorescence Values (X minute - 0 minute Reading) (sample UAMS041609, 90 min): 24,709 RFU
% Normal ADAMTS13 Values Calculated Using GTI_FRET4 Substrate (sample UAMS041609, incubation 15 Minutes): 19 % Normal
% Normal ADAMTS13 Values Calculated Using GTI_FRET4 Substrate (sample UAMS041609, incubation 30 Minutes): 22 % Normal
% Normal ADAMTS13 Values Calculated Using GTI_FRET4 Substrate (sample UAMS041609, incubation 45 Minutes): 23 % Normal
% Normal ADAMTS13 Values Calculated Using GTI_FRET4 Substrate (sample UAMS041609, incubation 60 Minutes): 24 % Normal
% Normal ADAMTS13 Values Calculated Using GTI_FRET4 Substrate (sample UAMS041609, incubation 75 Minutes): 26 % Normal
% Normal ADAMTS13 Values Calculated Using GTI_FRET4 Substrate (sample UAMS041609, incubation 90 Minutes): 27 % Normal
Increase in Fluorescence Values (X minute - 0 minute Reading) (sample VF, 15 min): 1,292 RFU
Increase in Fluorescence Values (X minute - 0 minute Reading) (sample VF, 30 min): 2,436 RFU
Increase in Fluorescence Values (X minute - 0 minute Reading) (sample VF, 45 min): 3,552 RFU
Increase in Fluorescence Values (X minute - 0 minute Reading) (sample VF, 60 min): 4,690 RFU
Increase in Fluorescence Values (X minute - 0 minute Reading) (sample VF, 75 min): 5,784 RFU
Increase in Fluorescence Values (X minute - 0 minute Reading) (sample VF, 90 min): 7,260 RFU
% Normal ADAMTS13 Values Calculated Using GTI_FRET4 Substrate (sample VF, incubation 15 Minutes): 5 % Normal
% Normal ADAMTS13 Values Calculated Using GTI_FRET4 Substrate (sample VF, incubation 30 Minutes): 6 % Normal
% Normal ADAMTS13 Values Calculated Using GTI_FRET4 Substrate (sample VF, incubation 45 Minutes): 6 % Normal
% Normal ADAMTS13 Values Calculated Using GTI_FRET4 Substrate (sample VF, incubation 60 Minutes): 6 % Normal
% Normal ADAMTS13 Values Calculated Using GTI_FRET4 Substrate (sample VF, incubation 75 Minutes): 5 % Normal
% Normal ADAMTS13 Values Calculated Using GTI_FRET4 Substrate (sample VF, incubation 90 Minutes): 6 % Normal
Sequence: DREKAPNLVYMVTGCPASDEIKRLPGDIQVVPIEVIGWPNAPILIQDEETLPREAPDLVLQR [GTI_FRET4]
